Earlier results in article PMC12192639.

Key:
[1] = target: SSB C-terminal peptide last eight amino acids (Escherichia coli) (UniProt P0AGE0)
RecO (Escherichia coli) = RecO (Escherichia coli) (UniProt B1XB39)

Chain of UniProt P0AGE0 (P0AGE0 whole entry, looked up): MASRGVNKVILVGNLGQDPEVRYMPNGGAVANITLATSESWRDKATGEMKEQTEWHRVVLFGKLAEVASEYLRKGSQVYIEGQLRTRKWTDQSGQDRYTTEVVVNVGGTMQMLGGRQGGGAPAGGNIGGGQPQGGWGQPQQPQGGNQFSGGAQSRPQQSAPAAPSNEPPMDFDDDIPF

Substance	Kd [1] [nM]	Kd (RecO (Escherichia coli)) [nM]
RecO (from UniProt B1XB39)	150	–
RecR (from UniProt C4ZUS6)	–	126
